Assay [1] addresses thiostrepton resistance RNA methyltransferase (Tsr) (Streptomyces azureus) (UniProt P18644). Nature of the assay: native gel or EMSA. On the technique in general: In EMSA bound probe runs differently from free probe, usually more slowly.
Assay [2] shares this target. In words: SEC.

“thiostrepton resistance RNA methyltransferase (Tsr) (from UniProt P18644 1-269) (enzyme)”: the stoichiometry N in assay [1] and in assay [2] was 2 in each case.

In general, stoichiometry N refers to a count of units in the complex or per binding partner.

The record behind these values is paper PMC2719339.
